In assay [1] the target is T1, Human LILRB1 (D1-D2) fused to mouse IgG2a Fc (human).
T1 construct: also called truncated (D1-D2) version of the LILRB1 ecto-domain
Kind of assay: summary table (ELISA); N = No.

In assay [2] the target is human LILRB1 (coated on plates in the competition ELISA) (human, UniProt Q8NHL6 24-461, limits assumed). The experiment in a line: competition ELISA on coated human LILRB1; competitor 5 nM biotinylated Antibody 2. As for the experimental part:
FIG. 33. Cross-competition between Antibody (Clone) 2 and other Abs in ELISA. Plates were coated with human LILRB1 and, after blocking, incubated with 5 nM of biotinylated Clone 2 and different concentrations of unlabelled Clones 1-5 and the Reference 1-3 Abs. Bound biotinylated Clone 2 was detected using HRP-conjugated streptavidin and a chromogenic substrate. Unlabelled Clone 2 competed its biotinylated counterpart with low nM IC₅₀, while Clones 1, 3, 4 and 5 each yielded IC₅₀ of about 10 nM. None of the Reference Abs, nor the isotype control, could compete with Antibody 2 up to 250 nM concentrations.
Antibodies 1 to 5 were all found to bind within the D3-D4 fragment of human LILRB1. To investigate if Antibody 2 binds to an epitope similar to or different from the epitope of the other Antibodies (and Reference Antibodies) a competitive ELISA was performed. Plates were coated with human LILRB1 and after blocking incubated with 5 nM of biotinylated Antibody 2 and different concentrations of each unlabelled Antibody 1-5 and the Reference Antibodies 1 to 3. Bound biotinylated Antibody 2 was detected using HRP-conjugated streptavidin and a chromogenic substrate. Unlabelled Antibody 2 competed its biotinylated counterpart with low nM IC₅₀, while Antibodies 1, 3, 4 and 5 yielded IC₅₀ about 10 nM. None of the Reference Abs nor the isotype control could compete with Antibody 2 up to 250 nM concentrations.
A general note: ELISA stands for enzyme-linked immunosorbent assay.

Assay [3] addresses T2, human LILRB1 ectodomain fused to mIgG2a Fc (human).
T2 construct: also called human LILRB1-mIgG2a; full length LILRB1 ectodomain
The experiment in a line: summary table (ELISA); Y = Yes.

Assay [4] addresses T3, Rhesus monkey (Macaca mulatta) LILRB ectodomain fused to mIgG2a Fc (rhesus monkey (Macaca mulatta)).
T3 construct: also called rhesus LILRB-mIgG2a; rhesus LILRB protein
Kind of assay: summary table (ELISA); Rhesus & Cyno LILRB1/2 binding; Y = Yes.

Assay [5] addresses T4, Cynomolgus monkey (Macaca fascicularis) LILRB ectodomain fused to mIgG2a (cynomolgus monkey (Macaca fascicularis)).
T4 construct: also called cynomolgus LILRB protein
Described as above.

Assay [6] addresses LILRA6 recombinant, full-length ectodomain (LILRA6 24-447) (human, UniProt Q6PI73 24-447). Kind of assay: multi-point ELISA, antigen coated, apparent EC50. As for the experimental part: (§1) FIG. 32. Binding of Clones 1-5 to selected LILR family members tested by multiple point ELISA. Recombinant LILRB1, LILRB2, LILRB3, LILRA1, LILRA3, LILRA4, and LILRA6, or irrelevant control protein were coated on the ELISA plates. The plates were then blocked with milk in PBST. Next, the plates were incubated with serial dilutions (12.5 nM to 0.02 nM) of Clones 1-5 (A-E). Bound antibodies were detected using HRP-conjugated anti-human Fc antibodies and the chromogenic substrate.
(§2) Binding of Clones 1-5 to selected LILR family members tested by multiple point ELISA. (FIG. 32) Recombinant LILRB1, LILRB2, LILRB3, LILRA1, LILRA3, LILRA4, LILRA6, or irrelevant control protein were coated on the ELISA plates. The plates were then blocked with milk in PBST. Next, the plates were incubated with serial dilutions (12.5 nM to 0.02 nM) of Clone 1-5 (A-E). Bound antibodies were detected using HRP-conjugated anti-human Fc antibodies and the chromogenic substrate.

For assay [7], the target named is T5, Human full length LILRA3 (human, UniProt Q8N6C8 24-439).
T5 construct: Commercial recombinant protein; also the parent of the LILRA3 peptide microarrays
Kind of assay: multi-point ELISA, antigen coated, apparent EC50. As for the experimental part: as §1, §2

The target in assay [8] is LILRB1 recombinant, full-length ectodomain (human, UniProt Q8NHL6 24-461). Kind of assay: multi-point ELISA, antigen coated, apparent EC50. As for the experimental part: as §1, §2
Assay [9] deals with LILRB3 recombinant, full-length ectodomain (LILRB3 24-443) (human, UniProt O75022 24-443). The experiment in a line: multi-point ELISA, antigen coated, apparent EC50. As for the experimental part: as §1, §2
Assay [10] has as its target LILRA4 recombinant, full-length ectodomain (LILRA4 24-446) (human, UniProt P59901 24-446). Kind of assay: multi-point ELISA, antigen coated, apparent EC50. As for the experimental part:
as §1, §2

Assay [11] addresses LILRB2 recombinant, full-length ectodomain (LILRB2 22-458) (human, UniProt Q8N423 22-458). Kind of assay: multi-point ELISA, antigen coated, apparent EC50. As for the experimental part:
as §1, §2

The target in assay [12] is T6, Human LILRA1 ectodomain (human, UniProt O75019 17-461).
T6 construct: Recombinant protein from a commercial source
The experiment in a line: multi-point ELISA, antigen coated, apparent EC50. As for the experimental part:
as §1, §2

Sequence of LILRB2 recombinant, full-length ectodomain (LILRB2 22-458) (Q8N423 22-458): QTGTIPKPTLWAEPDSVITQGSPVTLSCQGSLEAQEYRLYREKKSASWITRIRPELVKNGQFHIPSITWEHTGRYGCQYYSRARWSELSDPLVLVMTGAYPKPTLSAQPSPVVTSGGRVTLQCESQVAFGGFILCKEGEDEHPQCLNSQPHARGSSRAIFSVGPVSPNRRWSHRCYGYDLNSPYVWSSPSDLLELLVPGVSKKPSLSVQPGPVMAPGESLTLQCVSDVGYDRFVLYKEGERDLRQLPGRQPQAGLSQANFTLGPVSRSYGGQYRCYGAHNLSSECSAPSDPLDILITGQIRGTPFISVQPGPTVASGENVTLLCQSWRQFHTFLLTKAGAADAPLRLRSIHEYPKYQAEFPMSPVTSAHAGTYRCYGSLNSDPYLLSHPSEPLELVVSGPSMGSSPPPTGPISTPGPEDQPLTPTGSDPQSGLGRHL
Sequence of LILRB3 recombinant, full-length ectodomain (LILRB3 24-443) (O75022 24-443): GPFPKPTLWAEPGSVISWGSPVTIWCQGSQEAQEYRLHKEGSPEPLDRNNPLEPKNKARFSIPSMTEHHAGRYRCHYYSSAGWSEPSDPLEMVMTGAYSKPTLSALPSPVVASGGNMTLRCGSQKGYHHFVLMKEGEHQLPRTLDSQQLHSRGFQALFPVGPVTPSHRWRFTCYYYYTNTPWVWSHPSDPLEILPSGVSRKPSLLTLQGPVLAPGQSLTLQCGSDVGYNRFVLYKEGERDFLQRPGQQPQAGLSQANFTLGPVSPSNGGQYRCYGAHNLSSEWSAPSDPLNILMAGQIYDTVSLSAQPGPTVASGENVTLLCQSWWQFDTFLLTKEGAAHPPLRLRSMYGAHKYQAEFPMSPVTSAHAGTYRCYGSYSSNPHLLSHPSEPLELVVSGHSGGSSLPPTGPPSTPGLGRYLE
T3 sequence (chain, as listed by the source limits assumed): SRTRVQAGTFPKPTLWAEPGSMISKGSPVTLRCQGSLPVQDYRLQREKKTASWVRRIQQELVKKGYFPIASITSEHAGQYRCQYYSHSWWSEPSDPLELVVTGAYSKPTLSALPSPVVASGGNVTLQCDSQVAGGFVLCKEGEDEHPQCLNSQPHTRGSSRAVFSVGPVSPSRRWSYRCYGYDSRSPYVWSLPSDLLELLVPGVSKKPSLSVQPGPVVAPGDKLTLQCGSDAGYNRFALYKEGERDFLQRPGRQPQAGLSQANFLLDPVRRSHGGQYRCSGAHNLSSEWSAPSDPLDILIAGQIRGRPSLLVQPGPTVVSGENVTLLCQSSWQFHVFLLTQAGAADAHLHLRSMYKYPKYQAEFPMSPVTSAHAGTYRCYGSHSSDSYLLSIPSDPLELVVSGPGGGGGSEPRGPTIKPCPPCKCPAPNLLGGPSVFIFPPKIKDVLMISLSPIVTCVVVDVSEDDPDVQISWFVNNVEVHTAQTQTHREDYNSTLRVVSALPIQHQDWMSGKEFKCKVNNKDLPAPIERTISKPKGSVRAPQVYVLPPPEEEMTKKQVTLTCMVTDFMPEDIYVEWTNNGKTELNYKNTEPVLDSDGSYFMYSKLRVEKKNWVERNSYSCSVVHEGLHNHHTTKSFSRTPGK
Sequence of LILRB1 recombinant, full-length ectodomain (Q8NHL6 24-461 limits assumed): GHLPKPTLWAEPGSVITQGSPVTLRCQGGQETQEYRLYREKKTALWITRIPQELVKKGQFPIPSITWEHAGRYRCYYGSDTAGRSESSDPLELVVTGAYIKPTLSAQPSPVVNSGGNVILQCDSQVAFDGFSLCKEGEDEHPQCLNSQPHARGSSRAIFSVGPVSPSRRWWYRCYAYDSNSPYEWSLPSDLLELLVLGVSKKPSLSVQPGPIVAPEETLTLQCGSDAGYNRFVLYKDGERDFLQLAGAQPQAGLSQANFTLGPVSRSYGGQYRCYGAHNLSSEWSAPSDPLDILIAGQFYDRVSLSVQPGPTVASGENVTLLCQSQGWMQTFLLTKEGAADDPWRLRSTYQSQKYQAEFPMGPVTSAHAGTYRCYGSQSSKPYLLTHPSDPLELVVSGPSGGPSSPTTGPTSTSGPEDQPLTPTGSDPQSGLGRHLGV
Sequence of human LILRB1 (coated on plates in the competition ELISA) (Q8NHL6 24-461 limits assumed): as above
Sequence of LILRA4 recombinant, full-length ectodomain (LILRA4 24-446) (P59901 24-446): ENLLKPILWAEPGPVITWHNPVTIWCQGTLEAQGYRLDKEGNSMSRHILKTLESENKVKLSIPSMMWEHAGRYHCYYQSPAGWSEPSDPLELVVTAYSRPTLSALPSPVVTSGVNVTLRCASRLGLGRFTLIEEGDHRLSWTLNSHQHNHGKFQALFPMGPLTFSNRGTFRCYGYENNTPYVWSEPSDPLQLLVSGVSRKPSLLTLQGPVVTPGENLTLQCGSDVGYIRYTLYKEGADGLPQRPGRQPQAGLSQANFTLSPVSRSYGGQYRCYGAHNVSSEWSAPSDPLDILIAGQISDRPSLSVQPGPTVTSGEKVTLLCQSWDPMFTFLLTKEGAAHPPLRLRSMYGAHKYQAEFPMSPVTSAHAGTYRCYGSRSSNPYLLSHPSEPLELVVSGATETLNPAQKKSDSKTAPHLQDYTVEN
T4 sequence (chain, as listed by the source limits assumed): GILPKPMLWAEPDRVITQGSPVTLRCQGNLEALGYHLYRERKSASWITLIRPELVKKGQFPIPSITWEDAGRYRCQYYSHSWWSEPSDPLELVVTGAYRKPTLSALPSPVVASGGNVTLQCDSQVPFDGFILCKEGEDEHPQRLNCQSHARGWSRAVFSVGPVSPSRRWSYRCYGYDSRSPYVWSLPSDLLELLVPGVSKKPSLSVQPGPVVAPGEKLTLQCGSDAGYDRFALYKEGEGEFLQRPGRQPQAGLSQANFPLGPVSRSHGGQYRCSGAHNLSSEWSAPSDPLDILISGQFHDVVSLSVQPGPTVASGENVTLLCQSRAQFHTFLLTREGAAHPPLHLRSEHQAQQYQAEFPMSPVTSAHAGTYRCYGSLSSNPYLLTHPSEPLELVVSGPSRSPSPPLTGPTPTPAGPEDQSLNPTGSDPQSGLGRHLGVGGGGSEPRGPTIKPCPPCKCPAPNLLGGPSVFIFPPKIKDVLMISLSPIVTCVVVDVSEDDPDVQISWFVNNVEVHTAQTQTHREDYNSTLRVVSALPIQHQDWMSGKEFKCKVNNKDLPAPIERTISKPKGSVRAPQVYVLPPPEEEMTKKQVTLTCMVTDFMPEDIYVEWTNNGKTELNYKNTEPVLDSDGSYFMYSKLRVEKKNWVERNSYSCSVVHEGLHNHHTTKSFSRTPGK
T2 sequence (chain, as listed by the source limits assumed): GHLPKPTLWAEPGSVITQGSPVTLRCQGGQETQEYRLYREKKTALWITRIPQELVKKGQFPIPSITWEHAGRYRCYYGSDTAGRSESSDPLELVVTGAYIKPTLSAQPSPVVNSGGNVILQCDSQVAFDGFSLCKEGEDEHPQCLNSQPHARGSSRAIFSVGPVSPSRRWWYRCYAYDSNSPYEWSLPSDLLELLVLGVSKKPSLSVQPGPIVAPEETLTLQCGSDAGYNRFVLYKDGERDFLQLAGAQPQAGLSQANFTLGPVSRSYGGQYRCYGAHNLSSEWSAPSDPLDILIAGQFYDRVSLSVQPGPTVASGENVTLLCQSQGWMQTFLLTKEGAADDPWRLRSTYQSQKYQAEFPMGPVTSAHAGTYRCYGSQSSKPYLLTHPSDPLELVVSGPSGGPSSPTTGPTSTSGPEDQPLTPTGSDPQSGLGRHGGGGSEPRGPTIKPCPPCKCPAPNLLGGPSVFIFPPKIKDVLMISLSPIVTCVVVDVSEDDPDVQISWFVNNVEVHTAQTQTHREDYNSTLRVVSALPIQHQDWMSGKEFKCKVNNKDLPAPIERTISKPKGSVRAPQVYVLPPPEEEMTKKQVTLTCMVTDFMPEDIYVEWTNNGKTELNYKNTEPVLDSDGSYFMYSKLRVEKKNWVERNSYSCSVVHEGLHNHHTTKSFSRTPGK
Sequence of LILRA6 recombinant, full-length ectodomain (LILRA6 24-447) (Q6PI73 24-447): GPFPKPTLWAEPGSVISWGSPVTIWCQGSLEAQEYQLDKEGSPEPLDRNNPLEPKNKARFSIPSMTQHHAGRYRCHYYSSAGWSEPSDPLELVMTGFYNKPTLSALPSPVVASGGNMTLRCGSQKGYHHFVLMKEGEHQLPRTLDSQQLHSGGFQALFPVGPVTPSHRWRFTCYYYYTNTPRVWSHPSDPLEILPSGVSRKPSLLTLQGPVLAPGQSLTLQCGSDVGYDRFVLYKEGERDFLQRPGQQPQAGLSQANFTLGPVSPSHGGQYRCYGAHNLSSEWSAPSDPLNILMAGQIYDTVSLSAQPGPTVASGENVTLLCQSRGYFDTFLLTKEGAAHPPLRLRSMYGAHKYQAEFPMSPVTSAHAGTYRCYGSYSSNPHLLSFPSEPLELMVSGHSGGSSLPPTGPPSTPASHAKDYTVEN
T5 sequence (Q8N6C8 24-439 A105V limits assumed): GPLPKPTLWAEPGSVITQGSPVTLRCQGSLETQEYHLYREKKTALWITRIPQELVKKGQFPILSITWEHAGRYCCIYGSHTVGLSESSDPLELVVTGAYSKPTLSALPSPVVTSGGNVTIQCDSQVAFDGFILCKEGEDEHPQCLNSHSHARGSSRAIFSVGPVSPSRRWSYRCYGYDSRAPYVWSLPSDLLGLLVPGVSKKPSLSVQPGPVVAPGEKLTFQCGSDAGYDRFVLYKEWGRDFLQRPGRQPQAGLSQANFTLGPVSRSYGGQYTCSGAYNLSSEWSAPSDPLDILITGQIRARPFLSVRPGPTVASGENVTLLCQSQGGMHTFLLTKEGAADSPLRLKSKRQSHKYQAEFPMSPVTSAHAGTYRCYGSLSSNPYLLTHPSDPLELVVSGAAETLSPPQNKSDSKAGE

B1: Antibody 1 (antibody, V domains shown)
VH: QVQLVESGGGLVKPGGSLRLSCAASGFTFSDYYMSWIRQAPGKGLEWVSYISSSGSIKKYADSVKGRFTISRDNAKNSLYLQMNSLRGEDTAVYYCARTNWHFDYWGQGTLVTVSS
VL: EIVLTQSPGTLSLSPGERATLSCRASQSVSSSYLAWYQQKPGQAPRLLIFGASTRATGIPDRFSGSGSGTDFTLTISRLEPEDVAVYYCQQYYSTPFTFGPGTKVDIK
notes: Fully human antibody expressed in CHO; also called Clone 1; Antibody Clone 1
On to B1, for which the binding result in [1] is reported as “no binding”; in assay [3] it was “binds”; in assay [4] it was “binds”; in assay [5] it was “binds”. Besides, in assay [2], the concentration for half-maximal inhibition (IC50) – broadly, the point on the concentration scale where inhibition reaches its midpoint – is about 10 nM. The half-maximal effective concentration (EC50) – broadly, the concentration that produces a half-maximal response – in [6] is 1.81 nM; in [7] it was 0.97 nM; in [8], 0.55 nM; in assay [9], 2 nM; in [10] it was 0.81 nM; in [11] it was 0.73 nM. The EC50 in assay [12] stood at 2.38 nM.

B2: Antibody 5 (antibody, V domains shown)
VH: QVQLVESGGGLVKPGGSLRLSCAASGFTFSDYYMTWIRQAPGKGLEWVSYISISGITRYYADSVKGRFTISRDNAKNSLYLQMNSLRAEDTAVYYCARDQTGYFDYWGQGTLVTVSS
VL: DIVMTQSPATLSVSPGEKTTLSCRASQSFSSNLAWYQQKPGQAPRLLIYGASTRATGIPARFSGSGSGTEFTLTISSLQSEDFAVYYCQQYINWPHTFGQGTKVEIK
notes: Fully human antibody; IgG4; also called Clone 5; Antibody Clone 5
For B2, the binding result is on record as “no binding” in assay [1], “binds” in assay [3], “binds” in assay [4] and “binds” in assay [5]. This molecule displayed a concentration for half-maximal inhibition (IC50) in assay [2] of about 10 nM. Also, the EC50 in assay [6] was 0.97 nM; in assay [7] it was 1.26 nM; in assay [8] it was 0.99 nM; in assay [9], 0.99 nM; in [10] it was 0.84 nM; in [11] it was 1.04 nM. Further, the EC50 in assay [12] was 9.07 nM.

B3: Antibody 3 (antibody, V domains shown)
VH: QVQLVQSGAEVKKPGASVKVSCKASGYTFTSYGISWVRQAPGQGLEWMGWISAYNGNTNYAQKLQGRVTMTTDTSTSTAYMELRSLRSDDTAVYYCARSYSGSHWWFDPWGQGTLVTVSS
VL: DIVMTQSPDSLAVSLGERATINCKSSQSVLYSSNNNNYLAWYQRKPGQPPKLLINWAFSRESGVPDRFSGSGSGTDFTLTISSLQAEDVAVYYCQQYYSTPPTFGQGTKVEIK
notes: Fully human antibody; IgG4; also called Clone 3; Antibody Clone 3
B3: the binding result is “no binding” in assay [1], “binds” in assay [3], “binds” in assay [4] and “binds” in [5]. In assay [2], this molecule yielded a concentration for half-maximal inhibition (IC50) of about 10 nM. Further, the half-maximal effective concentration (EC50) in assay [6] is 1.69 nM; in assay [7], 1.2 nM; in [8], 1.38 nM; in assay [9] it was 1.75 nM; in [10], 1.15 nM; in assay [11] it was 1.28 nM. Besides, the EC50 in assay [12] was 1.76 nM.

B4: Antibody 4 (antibody, V domains shown)
VH: QVQLVQSGAEVKKPGASVKVSCKASGYTFTSYGISWVRQAPGQGLEWMGWISAYNGNTNYAQKLQGRVTMTTDTSTSTAYMELRSLRSDDTAVYYCARSYSGSYWWFDPWGQGTLVTVSS
VL: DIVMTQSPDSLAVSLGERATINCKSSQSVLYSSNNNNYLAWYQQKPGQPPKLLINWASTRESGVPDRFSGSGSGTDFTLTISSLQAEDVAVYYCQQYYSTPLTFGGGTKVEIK
notes: Fully human antibody; IgG4; also called Clone 4; Antibody Clone 4
Take B4: the binding result in [1] is “no binding”; in assay [3], “binds”; in [4], “binds”; in assay [5], “binds”. This molecule also returned an IC50 in assay [2] of about 10 nM. For the same molecule, the concentration for a half-maximal effect (EC50) in assay [6] came out at 2.2 nM; in assay [7], 1.42 nM; in assay [8] it was 1.24 nM; in [9] it was 1.38 nM; in assay [10], 1.38 nM; in [11], 1.39 nM. The concentration for a half-maximal effect (EC50) in assay [12] was 4.1 nM.

Source of the values: patent US20250197491A1 (MACOMICS, published 2025).
